Source: patent US20230110875A1 (US Dept. of Health and Human Services, published 2023)

Target: T1, mouse CD276-AP fusion protein (mouse, UniProt Q8VE98 29-248)
T1 construct: Coated on the ELISA plate at 2 ug/ml; not shown: AP fusion partner
T1 sequence (looked up): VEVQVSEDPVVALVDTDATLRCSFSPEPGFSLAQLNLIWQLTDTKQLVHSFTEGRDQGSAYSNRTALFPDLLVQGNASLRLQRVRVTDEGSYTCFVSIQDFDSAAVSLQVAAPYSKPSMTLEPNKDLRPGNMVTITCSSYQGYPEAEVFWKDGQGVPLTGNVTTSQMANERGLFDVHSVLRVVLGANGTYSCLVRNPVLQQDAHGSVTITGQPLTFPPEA
Assay: ELISA, mouse CD276-AP fusion protein coated at 2 ug/ml, serially diluted scFv-Fc culture medium, HRP goat anti-human IgG, OD 450 nm
Procedure: 50 μl of the diluted mouse or human CD276-AP fusion protein in PBS at 2 μg/ml was coated in a 96-well plate at 4° C. overnight. Transiently expressed scFv-Fc fusion protein in the culture medium was serially diluted and added into the target protein coated wells. After washing, a 1:3000 diluted horseradish peroxidase (HRP) conjugated goat anti-human IgG antibody was added for 1 hr at RT. After washing, 3, 3, 5, 5′-Tetramethylbenzidine (TMB) substrate was added, and the optical density (O.D.) was read at 450 nm.

B1: Clone CD276.1 (m851) scFv-Fc fusion protein (Fc fusion)
scFv: QVQLQQSGAEVKKPGSSVKVSCKASGGTFSSYAISWVRQAPGQGLEWMGGIIPILGIANYAQKFQGRVTITADESTSTAYMELSSLRSEDTAVYYCARGGAGGSGSYYPLIWGQGTTVTVSSGGGGSGGGGSGGGGSEIVLTQSPATLSLSPGERATLSCGASQSVSSSYLAWYQQKPGQAPRLLIYDASSRATGIPARFSGSGSGTDFTLTISSLEPEDFAVYYCQQRSSWPPTWTFGQGTKLEIKR
notes: also called m851 (CD276.1); not shown: Fc-Avi tag from modified pSecTag vector
  binding result: no binding
